{
  "source": "patent US10532083B2",
  "about": "“Methods for inducing differentiation or conversion of white adipocytes and/or preadipocytes to brown adipocites using FGF8” (Technische Universität München, priority 2014, dated 2020)",
  "tested_on": "visceral, epididymal white adipocytes",
  "assay": "Ucp1 / brown adipocyte marker mRNA (qPCR) in immortalized epididymal white adipocytes treated with FGFs",
  "type": "cell-based, murine",
  "details": "for Induction of Ucp1 mRNA expression (browning potential), screening of paracrine FGFs and FGF8 spliceforms: epididymal adipocytes, six days of differentiation, FGF8a, b, e, f 25.0 ng/ml, FGF17 10.0 ng/ml",
  "method": "Screening paracrine FGFs for a browning potential. A, B—Screening of all paracrine FGFs in immortalized white adipocytes. Subcutaneous, inguinal and visceral, epididymal white adipocytes were grown to confluence in Dulbecco's modified Eagle's medium with 4.5 g/l glucose, supplemented with 20 nmol/l insulin, 1 nmol/l triiodothyronine, 20% fetal bovine serum, and penicillin/streptomycin. Upon reaching confluence, differentiation was induced with 500 mmol/l isobutylmethylxanthine, 250 mmol/l indomethacine, and 2 mg/ml dexamethasone for 24 hours. Subsequently, members of the paracrine FGF protein family were added to the medium for the following six days. The medium and the FGF indicated were changed every 48 hours. Untreated cells served as a negative control. At the end of the differentiation process total RNA was isolated using TRIzol reagents, RNA quality and concentration was measured by photometric analysis, and 5 μg of total RNA was reverse-transcribed to cDNA. Finally, quantitative analysis of UCP-1 mRNA expression was performed. A bar graph analysis including the SEM of 3 to 6 independent experiments is shown. […] B—Four different splicing forms of the Fgf8 gene were compared by quantifying Ucp1 mRNA expression in fully differentiated white adipocytes. UCP-1 mRNA abundance is shown in percent of the FGF8b value. Fgf8b and Fgf8f were able to increase expression in epididymal adipocytes. C—Illustration depicting the different exon usage that characterizes the FGF8 spliceforms a, b, e, and f.\nDose dependency of Ffg8b action. A, B—Subcutaneous, inguinal and visceral, epididymal white adipocytes were grown to confluence in Dulbecco's modified Eagle's medium with 4.5 g/l glucose, supplemented with 20 nmol/l insulin, 1 nmol/l triiodothyronine, 20% fetal bovine serum, and penicillin/streptomycin. Upon reaching confluence, differentiation was induced with 500 mmol/l isobutylmethylxanthine, 250 mmol/l indomethacine, and 2 mg/ml dexamethasone for 24 hours. Subsequently, FGF8b in five indicated concentrations were added to the medium for the following six days. The medium and the FGF8b were changed every 48 hours. Untreated cells served as a negative control. At the end of the differentiation process total RNA was isolated using TRIzol reagents, RNA quality and concentration was measured by photometric analysis, and 5 μg of total RNA was reverse-transcribed to cDNA. Finally, quantitative analysis of UCP-1 mRNA expression was performed. FGF8b induces Ucp1 mRNA abundance in inguinal and epididymal adipocytes. Epididymal fat cells were more dose dependently responsive to Fgf8b treatment as compared to inguinal cells. The latter were responsive to FGF8b treatment above the threshold indicated. B—The absolute increase of several genes typical for brown fat cells.\nTreatment timecourse experiment. A, B—Subcutaneous, inguinal and visceral, epididymal white adipocytes were grown to confluence (prolif. denotes proliferation period) in Dulbecco's modified Eagle's medium with 4.5 g/l glucose, supplemented with 20 nmol/l insulin, 1 nmol/l triiodothyronine, 20% fetal bovine serum, and penicillin/streptomycin. Upon reaching confluence, differentiation was induced with 500 mmol/l isobutylmethylxanthine, 250 mmol/l indomethacine, and 2 mg/ml dexamethasone for 24 hours (induction). Subsequently, the cells were cultured for another six days (differentiation). At the end of the differentiation process total RNA was isolated using TRIzol reagents, RNA quality and concentration was measured by photometric analysis, and 5 μg of total RNA was reverse-transcribed to cDNA. Finally, quantitative analysis of UCP-1 mRNA expression was performed. Untreated cells served as a negative control. A bar graph analysis including the SEM of 5 independent experiments is shown. A—Epididymal fat cells were treated with FGF8b during different time windows as given by black squares indicating one day of treatment each. […]",
  "data": [
    {"molecule": "FGF8b: murine recombinant paracrine fibroblast growth factor 8, major spliceform b (R&D Systems); amino acid sequence identical to human, SEQ ID NO:16/20 (protein, human FGF8b) MGSPRSALSCLLLHLLVLCLQAQVTVQSSPNFTQHVREQSLVTDQLSRRLIRTYQLYSRTSGKHVQVLANKRINAMAEDGDPFAKLIVETDTFGSRVRVRGAETGLYICMNKKGKLIAKSNGKGKDCVFTEIVLENNYTALQNAKYEGWYMAFTRKGRPRKGSKTRQHQREVHFMKRLPRGHHTTEQSLRFEFLNYPPFTRSLRGSQRTWAPEPR", "values": [
      {"measurement": "Pgc1a mRNA", "setting": "continuous treatment during differentiation, fully differentiated adipocytes (FIG. 2B)", "result": "strongly downregulated"},
      {"measurement": "Induction of Ucp1 mRNA expression (browning potential), screening of paracrine FGFs and FGF8 spliceforms", "result": "increased expression of Ucp1 mRNA expression"},
      {"measurement": "Induction of Ucp1 mRNA expression (browning potential), screening of paracrine FGFs and FGF8 spliceforms", "setting": "listed as Fgf8b", "result": "effective"},
      {"measurement": "Ucp1 mRNA abundance, dose dependency", "setting": "epididymal cells, different concentrations during entire differentiation phase of 6 days", "result": "dose dependent manner"},
      {"measurement": "Most effective concentration for Ucp1 induction", "setting": "epididymal cells, highest concentration tested, 6 days of differentiation", "result": 125, "unit": "ng/mL"},
      {"measurement": "Final Ucp1 mRNA abundance after full differentiation", "setting": "epididymal cells, treatment during the induction period", "result": "inhibited Ucp1 induction"},
      {"measurement": "Ucp1 mRNA abundance, induction", "setting": "fully differentiated epididymal cell line, treatment after induction for entire differentiation period of 6 days, screening concentration 25.0 ng/ml, untreated cells as control", "result": 27.4, "unit": "fold"}
    ]}
  ]
}
